Molecular target: the molecule itself
Assay: dynamic light scattering

B1: Glycolytic glyceraldehyde-3-phosphate dehydrogenase of Arabidopsis thaliana (AtGAPC1), native / reduced (enzyme, UniProt P25858 1-338, looked up)
chain: MADKKIRIGINGFGRIGRLVARVVLQRDDVELVAVNDPFITTEYMTYMFKYDSVHGQWKHNELKIKDEKTLLFGEKPVTVFGIRNPEDIPWAEAGADYVVESTGVFTDKDKAAAHLKGGAKKVVISAPSKDAPMFVVGVNEHEYKSDLDIVSNASCTTNCLAPLAKVINDRFGIVEGLMTTVHSITATQKTVDGPSMKDWRGGRAASFNIIPSSTGAAKAVGKVLPALNGKLTGMSFRVPTVDVSVVDLTVRLEKAATYDEIKKAIKEESEGKLKGILGYTEDDVVSTDFVGDNRSSIFDAKAGIALSDKFVKLVSWYDNEWGYSSRVVDLIVHMSKA
With B1 the “stoichiometry N” value was 4.

B2: H2O2-oxidized AtGAPC1 (AtGAPC1-SO2H) (enzyme, Arabidopsis thaliana, UniProt P25858 1-338, looked up)
chain: MADKKIRIGINGFGRIGRLVARVVLQRDDVELVAVNDPFITTEYMTYMFKYDSVHGQWKHNELKIKDEKTLLFGEKPVTVFGIRNPEDIPWAEAGADYVVESTGVFTDKDKAAAHLKGGAKKVVISAPSKDAPMFVVGVNEHEYKSDLDIVSNASCTTNCLAPLAKVINDRFGIVEGLMTTVHSITATQKTVDGPSMKDWRGGRAASFNIIPSSTGAAKAVGKVLPALNGKLTGMSFRVPTVDVSVVDLTVRLEKAATYDEIKKAIKEESEGKLKGILGYTEDDVVSTDFVGDNRSSIFDAKAGIALSDKFVKLVSWYDNEWGYSSRVVDLIVHMSKA
modifications: sulfinic acid or sulfinate (-SO2H or -SO2-) at Cys149
B2 was tested, and the “stoichiometry N” value was 4.

B3: IAM-pretreated AtGAPC1 WT (WT-IAM) (enzyme, Arabidopsis thaliana, UniProt P25858 1-338, looked up)
chain: MADKKIRIGINGFGRIGRLVARVVLQRDDVELVAVNDPFITTEYMTYMFKYDSVHGQWKHNELKIKDEKTLLFGEKPVTVFGIRNPEDIPWAEAGADYVVESTGVFTDKDKAAAHLKGGAKKVVISAPSKDAPMFVVGVNEHEYKSDLDIVSNASCTTNCLAPLAKVINDRFGIVEGLMTTVHSITATQKTVDGPSMKDWRGGRAASFNIIPSSTGAAKAVGKVLPALNGKLTGMSFRVPTVDVSVVDLTVRLEKAATYDEIKKAIKEESEGKLKGILGYTEDDVVSTDFVGDNRSSIFDAKAGIALSDKFVKLVSWYDNEWGYSSRVVDLIVHMSKA
modifications: Cys149 alkylated by iodoacetamide (IAM)
With B3 the “stoichiometry N” value was 4.

Source: article doi:10.1101/545921 (bioRxiv, 2019)
